{
  "source": "patent US20240016917A1",
  "about": "(ACADEMIA SINICA, published 2024)",
  "target": "SARS-CoV-2 S protein S1 (SARS-CoV-2, UniProt P0DTC2 16-685)",
  "data": [
    {"binder": "monoclonal antibody (mAb) m31A7 (antibody, V domains shown) VH: EVQLQQSGPEMVKPGASVKISCKTSGYTFTEYTIYWVKQSHGKSLEWLGGINPNIGDTTYNQKFKGKATLTVDTSSSTAYMELRSLTSEDSAVYYCAREVYNYSFAYWGQGTLVTVSA VL: DIVMSQSPSSLAVSVGEKVTMSCKSSQSLLYSSNQKNYLAWYQQKLGQTPKLLIYWASSRESGVPDRFTGSGSGTDFTLTISSVRAEDLAVYYCQQYYRYPLTFGVGTKLELKR", "values": [
      {"measurement": "EC50", "result": 0.0235, "unit": "nM"}
    ]}
  ]
}
